# Results published in patent publication US8242083B2, “Kinase substrates” (PerkinElmer Health Sciences, Inc., priority 2008, dated 2012).
# Columns and labels:
# Assay type in all cases: biochemical
# [1] = molecular target: KIT (Homo sapiens, UniProt P10721); assay: TR-FRET kinase assay, KIT; details: Kinase Concentration 2 nM; 50 nM ULight-labeled substrate, 200 micromolar ATP, 2 hours
# Method: (§1) TR-FRET kinase assays are performed under standardized conditions: various individual kinases are incubated with 50 nM of kinase substrate BRB1 labeled with the TR-FRET acceptor dye ULight (PerkinElmer) and 200 micromolar ATP in 10 μL of kinase assay buffer (50 mM HEPES pH7.5, 10 mM MgCl2, 3 mM MnCl2, 1 mM EGTA, 2 mM DTT and 0.01% Tween-20) for 2 hours at room temperature. Reactions are stopped with EDTA, and anti-phospho-tyrosine antibodies (clone PT66) labeled with the TR-FRET europium chelate donor dye are added to a final concentration of 2 nM in a final volume of 20 μL. The TR-FRET signal emitted at 665 nm is read one hour after the addition of antibodies using a TR-FRET plate reader such as the Envision® Multilabel Plate reader (PerkinElmer). The emitted signal at 665 nm is proportional to the extent of peptide phosphorylation, Control reactions indicative of background are performed excluding ATP from the reaction.
# (§2) Assay conditions are identical to those used described for FIG. 1.
# [2] = molecular target: FLT1 (Homo sapiens, UniProt P17948); assay: TR-FRET kinase assay, FLT1; details: Kinase Concentration 0.25 nM; 50 nM ULight-labeled substrate, 200 micromolar ATP, 2 hours
# Chain of FLT1 (P17948 27-1338, species assumed): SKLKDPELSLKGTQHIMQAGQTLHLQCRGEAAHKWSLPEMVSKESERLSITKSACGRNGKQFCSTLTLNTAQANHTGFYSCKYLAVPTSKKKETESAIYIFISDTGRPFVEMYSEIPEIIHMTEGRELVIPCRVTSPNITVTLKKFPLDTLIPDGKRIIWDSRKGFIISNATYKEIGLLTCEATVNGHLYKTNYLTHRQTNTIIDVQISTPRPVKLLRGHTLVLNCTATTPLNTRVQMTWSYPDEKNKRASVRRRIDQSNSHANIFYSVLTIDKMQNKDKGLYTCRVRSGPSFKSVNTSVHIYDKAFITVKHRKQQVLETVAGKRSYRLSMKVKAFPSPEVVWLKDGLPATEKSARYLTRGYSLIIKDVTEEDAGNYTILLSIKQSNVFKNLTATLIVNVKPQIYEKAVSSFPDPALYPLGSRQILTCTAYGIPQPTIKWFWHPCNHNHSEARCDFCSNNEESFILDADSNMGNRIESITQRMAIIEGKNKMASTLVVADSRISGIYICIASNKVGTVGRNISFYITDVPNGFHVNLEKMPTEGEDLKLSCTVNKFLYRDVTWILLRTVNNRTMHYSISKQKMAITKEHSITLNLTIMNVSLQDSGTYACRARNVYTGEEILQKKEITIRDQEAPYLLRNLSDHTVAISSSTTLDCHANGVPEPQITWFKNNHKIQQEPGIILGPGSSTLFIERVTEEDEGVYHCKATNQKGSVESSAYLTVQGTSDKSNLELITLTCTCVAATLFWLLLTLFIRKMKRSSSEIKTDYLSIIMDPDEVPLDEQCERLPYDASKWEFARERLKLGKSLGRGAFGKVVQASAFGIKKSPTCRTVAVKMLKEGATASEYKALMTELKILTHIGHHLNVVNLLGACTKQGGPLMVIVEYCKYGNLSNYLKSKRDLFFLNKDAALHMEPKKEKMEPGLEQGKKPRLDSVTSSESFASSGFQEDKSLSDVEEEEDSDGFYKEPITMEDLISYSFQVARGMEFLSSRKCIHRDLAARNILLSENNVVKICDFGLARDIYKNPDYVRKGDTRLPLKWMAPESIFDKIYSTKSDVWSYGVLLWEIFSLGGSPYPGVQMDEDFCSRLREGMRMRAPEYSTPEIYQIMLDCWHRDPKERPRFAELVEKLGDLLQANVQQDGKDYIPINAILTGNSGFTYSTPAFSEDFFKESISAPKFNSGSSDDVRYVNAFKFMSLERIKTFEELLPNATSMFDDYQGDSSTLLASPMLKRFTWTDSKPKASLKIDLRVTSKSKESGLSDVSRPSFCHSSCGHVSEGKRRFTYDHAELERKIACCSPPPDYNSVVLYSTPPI
# Method: as §1, §2
# [3] = molecular target: FGFR1 (Homo sapiens, UniProt P11362); assay: TR-FRET kinase assay, FGFR1; details: Kinase Concentration 0.5 nM; 50 nM ULight-labeled substrate, 200 micromolar ATP, 2 hours
# Chain of FGFR1 (P11362 22-822, species assumed): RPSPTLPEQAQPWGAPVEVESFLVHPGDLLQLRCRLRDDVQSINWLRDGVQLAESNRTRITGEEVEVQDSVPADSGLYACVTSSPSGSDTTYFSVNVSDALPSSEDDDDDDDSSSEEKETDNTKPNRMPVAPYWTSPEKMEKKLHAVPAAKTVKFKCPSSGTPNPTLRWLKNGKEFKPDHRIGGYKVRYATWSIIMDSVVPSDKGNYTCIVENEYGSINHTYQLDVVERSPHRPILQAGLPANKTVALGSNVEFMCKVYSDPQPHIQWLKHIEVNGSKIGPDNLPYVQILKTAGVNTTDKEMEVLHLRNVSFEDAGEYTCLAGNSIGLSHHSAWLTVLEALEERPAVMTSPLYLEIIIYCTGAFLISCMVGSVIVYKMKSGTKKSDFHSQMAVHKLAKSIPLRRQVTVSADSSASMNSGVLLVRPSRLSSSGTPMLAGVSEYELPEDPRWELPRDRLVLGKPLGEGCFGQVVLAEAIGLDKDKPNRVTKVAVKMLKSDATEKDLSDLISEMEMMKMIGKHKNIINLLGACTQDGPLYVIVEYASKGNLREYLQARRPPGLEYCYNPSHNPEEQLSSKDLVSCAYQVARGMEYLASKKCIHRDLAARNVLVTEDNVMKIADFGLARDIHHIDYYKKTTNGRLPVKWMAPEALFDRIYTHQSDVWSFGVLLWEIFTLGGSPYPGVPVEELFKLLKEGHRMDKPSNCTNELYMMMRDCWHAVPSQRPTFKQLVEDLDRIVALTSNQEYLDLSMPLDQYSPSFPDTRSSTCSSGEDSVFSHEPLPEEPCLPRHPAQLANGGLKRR
# Method: as §1, §2
# [4] = molecular target: IRR (Homo sapiens, UniProt P14616); assay: TR-FRET kinase assay, IRR; details: Kinase Concentration 0.5 nM; 50 nM ULight-labeled substrate, 200 micromolar ATP, 2 hours
# Chain of IRR (P14616 27-1297, species assumed): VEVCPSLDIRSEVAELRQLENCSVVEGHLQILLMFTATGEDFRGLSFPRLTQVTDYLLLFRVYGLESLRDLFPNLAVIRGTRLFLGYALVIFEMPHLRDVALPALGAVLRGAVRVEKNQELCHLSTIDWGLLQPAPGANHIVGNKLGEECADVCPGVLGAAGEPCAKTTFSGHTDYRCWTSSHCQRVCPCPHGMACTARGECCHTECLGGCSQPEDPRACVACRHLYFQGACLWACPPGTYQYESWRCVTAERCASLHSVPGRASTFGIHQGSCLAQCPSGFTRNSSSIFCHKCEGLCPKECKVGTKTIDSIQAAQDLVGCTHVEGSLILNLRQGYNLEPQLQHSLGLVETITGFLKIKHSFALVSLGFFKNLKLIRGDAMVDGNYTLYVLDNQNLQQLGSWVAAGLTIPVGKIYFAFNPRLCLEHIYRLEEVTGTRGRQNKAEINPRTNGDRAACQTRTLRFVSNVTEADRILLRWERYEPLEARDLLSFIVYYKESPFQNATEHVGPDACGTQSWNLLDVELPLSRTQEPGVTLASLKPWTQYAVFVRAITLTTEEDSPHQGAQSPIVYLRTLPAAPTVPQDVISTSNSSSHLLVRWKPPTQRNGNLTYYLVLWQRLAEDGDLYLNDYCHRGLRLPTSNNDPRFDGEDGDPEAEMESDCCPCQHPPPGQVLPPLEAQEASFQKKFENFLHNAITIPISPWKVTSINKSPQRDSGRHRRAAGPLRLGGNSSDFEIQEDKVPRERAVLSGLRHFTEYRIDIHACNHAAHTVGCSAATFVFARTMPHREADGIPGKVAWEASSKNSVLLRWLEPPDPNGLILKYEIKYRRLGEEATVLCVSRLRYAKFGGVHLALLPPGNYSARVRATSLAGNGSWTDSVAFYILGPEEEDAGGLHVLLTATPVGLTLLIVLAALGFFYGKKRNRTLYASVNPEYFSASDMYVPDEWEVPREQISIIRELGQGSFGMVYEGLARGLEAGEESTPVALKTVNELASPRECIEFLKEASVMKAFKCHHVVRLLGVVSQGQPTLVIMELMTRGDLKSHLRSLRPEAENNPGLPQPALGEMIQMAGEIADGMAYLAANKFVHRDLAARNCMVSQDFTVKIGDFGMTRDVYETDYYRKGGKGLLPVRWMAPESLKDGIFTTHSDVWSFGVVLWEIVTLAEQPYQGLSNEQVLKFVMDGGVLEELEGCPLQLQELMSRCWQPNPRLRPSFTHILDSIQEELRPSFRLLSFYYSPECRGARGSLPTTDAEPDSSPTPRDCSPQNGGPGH
# Method: as §1, §2
# [5] = molecular target: T1, JAK3 (Homo sapiens, UniProt P52333); assay: TR-FRET kinase assay, JAK3; details: Kinase Concentration 0.5 nM; 50 nM ULight-labeled substrate, 200 micromolar ATP, 2 hours
# T1 sequence (P52333 1-1124): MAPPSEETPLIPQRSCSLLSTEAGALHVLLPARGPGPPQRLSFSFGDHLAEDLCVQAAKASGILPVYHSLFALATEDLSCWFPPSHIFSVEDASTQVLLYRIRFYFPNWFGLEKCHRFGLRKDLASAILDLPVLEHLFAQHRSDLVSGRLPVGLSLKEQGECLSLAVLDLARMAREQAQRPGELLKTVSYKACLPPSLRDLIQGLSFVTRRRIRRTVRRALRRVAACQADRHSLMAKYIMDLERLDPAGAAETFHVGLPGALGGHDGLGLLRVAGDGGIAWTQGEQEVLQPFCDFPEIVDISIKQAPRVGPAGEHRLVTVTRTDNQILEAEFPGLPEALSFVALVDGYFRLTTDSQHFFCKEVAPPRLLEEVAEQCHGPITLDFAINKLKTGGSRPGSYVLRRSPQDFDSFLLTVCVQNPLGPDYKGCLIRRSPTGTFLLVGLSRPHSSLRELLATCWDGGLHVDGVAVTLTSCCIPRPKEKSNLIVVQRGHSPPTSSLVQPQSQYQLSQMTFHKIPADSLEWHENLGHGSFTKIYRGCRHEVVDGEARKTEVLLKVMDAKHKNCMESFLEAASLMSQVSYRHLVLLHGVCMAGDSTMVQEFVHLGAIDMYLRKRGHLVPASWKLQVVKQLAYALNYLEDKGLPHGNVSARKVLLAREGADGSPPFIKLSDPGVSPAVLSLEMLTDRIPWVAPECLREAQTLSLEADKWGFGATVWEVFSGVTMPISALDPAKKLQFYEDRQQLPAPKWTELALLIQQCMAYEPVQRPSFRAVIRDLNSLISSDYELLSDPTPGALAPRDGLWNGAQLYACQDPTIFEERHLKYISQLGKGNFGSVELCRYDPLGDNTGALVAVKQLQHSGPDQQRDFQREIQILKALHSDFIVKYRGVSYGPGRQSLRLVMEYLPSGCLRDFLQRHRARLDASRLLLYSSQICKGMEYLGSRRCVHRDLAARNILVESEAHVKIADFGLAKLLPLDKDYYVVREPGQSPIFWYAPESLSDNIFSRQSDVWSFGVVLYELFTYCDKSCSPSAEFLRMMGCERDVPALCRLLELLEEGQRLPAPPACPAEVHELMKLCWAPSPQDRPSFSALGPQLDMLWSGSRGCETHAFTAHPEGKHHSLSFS
# Method: as §1, §2
# [6] = molecular target: CSK (Homo sapiens, UniProt P41240); assay: TR-FRET kinase assay, CSK; details: Kinase Concentration 20 nM; 50 nM ULight-labeled substrate, 200 micromolar ATP, 2 hours
# Chain of CSK (P41240 whole entry, species assumed): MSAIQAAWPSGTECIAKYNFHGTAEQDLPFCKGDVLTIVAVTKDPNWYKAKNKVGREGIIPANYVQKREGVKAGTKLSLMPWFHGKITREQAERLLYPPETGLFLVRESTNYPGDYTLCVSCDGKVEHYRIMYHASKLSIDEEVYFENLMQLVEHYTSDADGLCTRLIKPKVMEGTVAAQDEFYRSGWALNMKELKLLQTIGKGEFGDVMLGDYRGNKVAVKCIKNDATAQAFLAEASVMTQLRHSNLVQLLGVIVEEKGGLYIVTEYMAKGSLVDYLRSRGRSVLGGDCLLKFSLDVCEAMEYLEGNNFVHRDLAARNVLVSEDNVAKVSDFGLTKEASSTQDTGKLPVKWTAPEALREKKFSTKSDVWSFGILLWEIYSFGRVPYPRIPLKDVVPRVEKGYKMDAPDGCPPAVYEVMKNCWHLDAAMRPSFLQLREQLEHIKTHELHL
# Method: as §1, §2
# [7] = molecular target: T2, CTK (Homo sapiens, UniProt P42679); assay: TR-FRET kinase assay, CTK; details: Kinase Concentration 20 nM; 50 nM ULight-labeled substrate, 200 micromolar ATP, 2 hours
# T2 sequence (P42679 1-507): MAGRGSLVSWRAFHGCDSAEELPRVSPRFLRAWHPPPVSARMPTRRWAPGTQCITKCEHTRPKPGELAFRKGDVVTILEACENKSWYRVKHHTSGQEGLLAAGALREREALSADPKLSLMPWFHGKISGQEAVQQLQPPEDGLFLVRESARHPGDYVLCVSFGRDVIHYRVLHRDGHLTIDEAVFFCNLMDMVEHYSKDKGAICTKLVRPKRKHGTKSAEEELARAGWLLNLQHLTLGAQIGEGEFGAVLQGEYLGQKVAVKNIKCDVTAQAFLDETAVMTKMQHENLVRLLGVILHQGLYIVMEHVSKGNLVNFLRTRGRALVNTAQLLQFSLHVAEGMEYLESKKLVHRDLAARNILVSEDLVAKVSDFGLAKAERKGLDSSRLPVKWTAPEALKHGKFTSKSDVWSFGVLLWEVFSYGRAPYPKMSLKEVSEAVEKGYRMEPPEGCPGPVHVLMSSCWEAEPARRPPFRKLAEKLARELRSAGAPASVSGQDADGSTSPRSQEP
# Method: as §1, §2
# [8] = molecular target: YES (Homo sapiens, UniProt P07947); assay: TR-FRET kinase assay, YES; details: Kinase Concentration 0.25 nM; 50 nM ULight-labeled substrate, 200 micromolar ATP, 2 hours
# Chain of YES (P07947 whole entry, species assumed): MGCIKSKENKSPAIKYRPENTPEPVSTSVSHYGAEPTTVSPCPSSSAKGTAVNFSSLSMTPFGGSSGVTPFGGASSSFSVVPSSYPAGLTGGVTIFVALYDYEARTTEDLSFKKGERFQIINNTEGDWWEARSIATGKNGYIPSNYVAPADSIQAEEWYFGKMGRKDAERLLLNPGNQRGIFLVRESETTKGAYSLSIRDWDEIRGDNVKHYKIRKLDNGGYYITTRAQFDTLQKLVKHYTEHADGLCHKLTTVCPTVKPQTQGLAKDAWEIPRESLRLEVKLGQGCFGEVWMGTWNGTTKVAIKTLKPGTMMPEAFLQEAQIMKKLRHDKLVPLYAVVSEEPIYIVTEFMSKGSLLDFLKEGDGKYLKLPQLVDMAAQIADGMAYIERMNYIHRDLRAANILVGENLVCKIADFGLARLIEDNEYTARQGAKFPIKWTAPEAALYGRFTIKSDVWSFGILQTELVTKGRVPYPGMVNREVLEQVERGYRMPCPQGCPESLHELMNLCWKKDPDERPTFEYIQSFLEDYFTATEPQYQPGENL
# Method: as §1, §2
sequence,measurement,setting,value
C AYE AYE AYE K EYA EYA EYA K AYA EYE R (CAYEAYEAYEKEYAEYAEYAKAYAEYER; tyrosine kinase substrate peptide) [BRB1],Signal to Noise ratio with BRB1 Peptide,[1],1.5
same,Signal to Noise ratio with BRB1 Peptide,[2],4.1
same,Signal to Noise ratio with BRB1 Peptide,[3],26.4
same,Signal to Noise ratio with BRB1 Peptide,[4],19.2
same,Signal to Noise ratio with BRB1 Peptide,[5],16.1
same,Signal to Noise ratio with BRB1 Peptide,[6],27.2
same,Signal to Noise ratio with BRB1 Peptide,[7],2.5
same,Signal to Noise ratio with BRB1 Peptide,[8],28.0
